The target in the assay is human melanoma gp100(46-58) peptide, Ac-…-NH2 (human). Put plainly: ELISA, gp100(46-58) peptide on plate; naive DR4-IE Tg serum; anti-IgG2a detection. In general terms: ELISA stands for enzyme-linked immunosorbent assay.

The substance “serum of naive DR4-IE Tg mice (control of Tables 23.9 and 23.10) (antibody)” yielded an ELISA IgG2a signal at serum dilution 1:20 of 0.063, an ELISA IgG2a signal at serum dilution 1:60 of 0.058, an ELISA IgG2a signal at serum dilution 1:180 of 0.056 and an ELISA IgG2a signal at serum dilution 1:540 of 0.055.

The values above are taken from patent US20100291145A1.
